In the supplement of paper PMC9112550, “Optimization of the antimicrobial peptide Bac7 by deep mutational scanning” (BMC Biology, 2022):

Test system: Escherichia coli TOP10
Experiment: shrunken log2 fold change of peptide-encoding DNA abundance (4.5 h post-induction vs induction); higher = less antimicrobial activity (less host growth inhibition)
Conditions: time post-induction: 4.5 h; library: site-saturation at positions 5, 18, 19, 20
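Further: peptides expressed intracellularly from a pBAD plasmid library in pooled LB shake-flask culture, induced with 0.3% L-arabinose, DNA abundance read by NGS, three biological replicates, DESeq2 with apeglm shrinkage.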

Sequence | shrunken log2 fold change
RRIRIRPPRLPRPRPRPWIHPRP | 2.37
RRIRIRPPRLPRPRPRPPHGPRP | -0.0482
RRIRERPPRLPRPRPRPEKEPRP | 0.0662
RRIRSRPPRLPRPRPRPSIRPRP | -0.41
RRIRNRPPRLPRPRPRPPRRPRP | 0.518
RRIRIRPPRLPRPRPRPFKDPRP | -0.0121
RRIRPRPPRLPRPRPRPMYGPRP | -0.182
RRIRIRPPRLPRPRPRPWTRPRP | -0.187
RRIRTRPPRLPRPRPRPKTDPRP | -0.158
RRIRTRPPRLPRPRPRPQADPRP | -0.297
RRIRLRPPRLPRPRPRPTQIPRP | 0.14
RRIRWRPPRLPRPRPRPAQSPRP | 0.135
RRIRLRPPRLPRPRPRPPGEPRP | 0.196
RRIRCRPPRLPRPRPRPFGRPRP | -0.207
RRIRVRPPRLPRPRPRPRIFPRP | 0.137
RRIRYRPPRLPRPRPRPEHMPRP | -0.304
RRIRTRPPRLPRPRPRPTWAPRP | -0.117
RRIRWRPPRLPRPRPRPAHNPRP | 0.352
RRIRSRPPRLPRPRPRPEEDPRP | -0.00277
RRIRVRPPRLPRPRPRPQWNPRP | -0.386

Sequence | shrunken log2 fold change
RRIRDRPPRLPRPRPRPEIEPRP | 0.522
RRIRLRPPRLPRPRPRPQMMPRP | -0.371
RRIRTRPPRLPRPRPRPIEAPRP | -0.199
RRIRHRPPRLPRPRPRPVFHPRP | -0.345
RRIRWRPPRLPRPRPRPNDGPRP | -0.00211
RRIRKRPPRLPRPRPRPYARPRP | -0.0148
RRIRVRPPRLPRPRPRPAAAPRP | 0.69
RRIRYRPPRLPRPRPRPCTQPRP | -1.32
RRIRNRPPRLPRPRPRPQLRPRP | 0.0493
RRIRTRPPRLPRPRPRPKQEPRP | -0.0429
RRIRIRPPRLPRPRPRPGPEPRP | 0.342
RRIRGRPPRLPRPRPRPKVYPRP | -0.0773
RRIRERPPRLPRPRPRPNNWPRP | -0.524
RRIRRRPPRLPRPRPRPELTPRP | -0.0257
RRIRQRPPRLPRPRPRPVAYPRP | -0.0015
RRIRWRPPRLPRPRPRPLMYPRP | -0.0465
RRIRHRPPRLPRPRPRPSDRPRP | -0.125
RRIRIRPPRLPRPRPRPVMNPRP | -0.61
RRIRWRPPRLPRPRPRPGIIPRP | -0.0357
RRIRGRPPRLPRPRPRPMLVPRP | 0.418

Sequence | shrunken log2 fold change
RRIRTRPPRLPRPRPRPMAYPRP | 0.0358
RRIRFRPPRLPRPRPRPSAMPRP | -0.0766
RRIRTRPPRLPRPRPRPNQPPRP | 0.0619
RRIRQRPPRLPRPRPRPRHPPRP | 0.283
RRIRQRPPRLPRPRPRPKWNPRP | -0.216
RRIRFRPPRLPRPRPRPFCNPRP | -0.196
RRIRERPPRLPRPRPRPWAVPRP | -0.0984
RRIRWRPPRLPRPRPRPKNGPRP | -0.156
RRIRHRPPRLPRPRPRPAFKPRP | -0.0994
RRIRFRPPRLPRPRPRPHNDPRP | -0.81
RRIRYRPPRLPRPRPRPVSEPRP | -0.00125
RRIRVRPPRLPRPRPRPSWKPRP | -0.0781
RRIRGRPPRLPRPRPRPINIPRP | 0.00461
RRIRNRPPRLPRPRPRPYDMPRP | -0.00776
RRIRDRPPRLPRPRPRPVIGPRP | 0.16
RRIRWRPPRLPRPRPRPEISPRP | -0.161
RRIRVRPPRLPRPRPRPEELPRP | -0.0522
RRIRWRPPRLPRPRPRPTYYPRP | -0.463
RRIRQRPPRLPRPRPRPMLVPRP | 0.142
RRIRYRPPRLPRPRPRPEGMPRP | 0.0329
